These results are taken from publication PMC2148115.

The target in this experiment is Tubulin (αβ-tubulin heterodimer) from pig brain (pig) (UniProt P02550). Nature of the experiment: AUC.

“MAP2C (from UniProt P15146-3 1-467) (natural protein)”: the percent of the protein in the 19.5 S species, molar ratio to tubulin 0.43:1 is 21% and the percent of the protein in the 28.5 S species, molar ratio to tubulin 0.43:1 came out at 26%.
